Test results: the DeepSol protein solubility set

Assay: soluble on expression in E. coli; label from the status in PepcDB or PDB records

Sequence | soluble on expression in E. coli
MAHHHHHHMSLLKADQLRRDLFIKYSDKIAELLGETEECSPTEEQREKEEIETTEQRGLSSLPKRFRISYPRQHLLRQRAMQMPPAADVGDAENSPASASNSTCPPLGETATDEDENVETIWVELDEEEKRPVYNEPYPSVKRMMRRMQDESLRLLMREARIPVTPHQGDAYLLQRMEVLQQLEKNIGDDRIKILARLQKMDGKLHTCE | soluble
MLYKSSLAVAISALIAGQVSAAGFQVAEHSASGLGRAFSGEAAVADNASVLARNPAAMMLFETAQFSGALSIVDPEVNVDDLSNNQSMKDVAPLQIVPAAYYIRPINDQWAWGLAMFTTYGVATDYPNEIYAGDLAGDTSLISVNLNPNIAYRVNPELSLGFGLDLVAAKAKLTRHKGGLAPFMGGGNPSDNLIGMTGETLALGWNIGALYELDEQNRIGFGYRSRVKLNFDDGEFSSYDSGIATSAVVPGQLKIELPAIWELSGFHQLNEQWAVHYSYQQTDWSSFEELTATSSQCKNGTCFQKIEQYQDNGRWSVGATYTLNTTWTLRAGLAFDEQAGKATLSIPDSDRFWYSAGLTYTLTPQLTMDAGFALVQSRKGSFTEKNQIGQNLQFESEAVAYISALQFNYRFH | not soluble
MGKKIITISREYGSGGRQVGLTVAKKLGMEFYDKELIDAAAKEIGFPTEMIADREQRLTNSLLYNFAMGTLYGIAYPREPKVSELPLTEQIYQAQKKAIEEAAKRGSCIFVGRCADYILKSRPDVLRVFIYADRDIRKRRAIEEYGEIEEYIDEFMYQTDKRRRIHYENYTNQKWGSRENYDLMLNSGDLGLDKCVELLCEAVK | not soluble
GMDKYLSANSLEGVIDNEFSMPAPRWLNTYPAGPYRFINREFFIIAYETDPDLLQAILPPDMELLEPVVKFEFIRMPDSTGFGDYTESGQVVPVRYKGEEGGFTISMFLDCHAPIAGGREIWGFPKKLAKPKLFVEEDTLIGILKYGSIDIAIATMGYKHRPLDAEKVLESVKKPVFLLKNIPNVDGTPLVNQLTKTYLTDITVKGAWTGPGSLELHPHALAPISNLYIKKIVSVSHFITDLTLPYGKVVADYLA | soluble
PDPVRLEIFKNLYQFIAEQMGIVLQNTAASVNIKERLDFSCAIFDSSGLLVANAPHIPVHLGSMSESVCSLINDKGETIKPGNVYLSNNPYNGGTHLPDVTAITPVFPETQENPPTPLFYVASRGHQADIGGITPGSMPPHSTTVEEEGILFDNFLLVEAGNFQEIQVRNLLANHLYPARNPDQNIADFQAQIAANERGVKELHKMVAQYGLPIVQVYMKFVQDNAGESVRRAIDVLKDGTFIYEMDGGAKIQVKVTINREKRSAEIDFTGTSEQLNSNFNAPKAVTQAAVLYVFRTLVDDNIPLNAGCLKPLDIIVPEGCMLNPTYPSAVVAGNVETSQTIVDALYGALSVMAASQGTMNNFTFGSDRYQYYETICGGSGAGSNFDGTDAVHTHMTNSLLTDPEVLETRYPVLVESFSLRSDSGGKGKYSGGNGVVRRIRFLEPMTANILSGHRLVPPFGLNGGEAGQVGHNRIERHDGTQENLDSTATAEMQPGDVFVIETPGGGGFG | not soluble
MGSDKIHHHHHHMKRKINYTHIAEPTVFENVFPTYLTNETMMARKQKVLQRMETEKFDQLVFYADKEHGSNFEYLTGFIPRFEEGLLVLNKDGAATLILGNENLKLCQHARISADLIHYLAFSLPNQPMAGEQKLSQIFETLLDETAQKIGIVGWKMFTTQQQEPATMFDVPHFIVEALKKALPKEARLLNGTHLLIGAKGARATNNANELAHYEYGANLASRSMLKALNAIEIGQRETDIGALLNDEGQTPTVVTIAATGQRFEYANMYPTAKEIQLGDALSLTTGYKGGLSSRTGFVIENEQQLPEAQRDYLERVAKPYFQAVVHWLETIRIGLLGREMYQAIEEQLPKEIYHWHLNPGHLVSDDEWMSSPIYPDSAIRLESGMLFQVDIIPSVPGYTGVSAEECVALADETLQKEIQQTYPDMWQRIATRKAYLKETLKLDLPSEVLPMSNLVGYLRPFYLAKDKALCVEKPALK | not soluble
MSAEQVWQGNFEQLCLFHNLQGRWPGCREGALGRWCTIQRRDYRKGNMSDERKAQLERIGFPLALEHHHHHH | not soluble
FHMNRVTGELGNRPLFSIADFTFYQGISCILGDNGVGKSTLFRSILQFQKYKGSITWKGSVLKKKKSLYRDLTGVVQEAEKQFIRVSLREELQLDGPDSERNQRIFQALRYFDLEQAVDKSPYQLSGGQQKILQLLTILTSKASVILLDEPFAGLDDRACHYFCKWIVEERNQGRSFLLISHRLDPLISVVDYWIEMTSQGLRHVKEVTITKPLTSQSSNTQGEVR | soluble
GPGSMSSGSHRSPSAMRPSTRISSIGATSNRSSTHNTETELDPFVASLSRVTVYTDIPDKTLQRIMSITVDAYNRFVLVPTRNTWRKEEGSRKELEREVERTALRDIAQAVKVNVEAALGGTWHVIYGRSFATYVTHQQRCFCHFQLDGANVVVWRHGG | soluble
MGHHHHHHSHMTSGPGGRSAAAGGRKENHQWYVCNREKLCESLQAVFVQSYLDQGTQIFLNNSIEKSGWLFIQLYHSFVSSVFSLFMSRTSINGLLGRGSMFVFSPDQFQRLLKINPDWKTHRLLDLGAGDGEVTKIMSPHFEEIYATELSETMIWQLQKKKYRVLGINEWQNTGFQYDVISCLNLLDRCDQPLTLLKDIRSVLEPTRGRVILALVLPFHPYVENGGKWEKPSEILEIKGQNWEEQVNSLPEVFRKAGFVIEAFTRLPYLCEGDMYNDYYVLDDAVFVLKPV | not soluble
MTEQMWIEKLGLEAHPEGGYFKQTNKSEQLIPTKRGERALHTAILFLLNTESPSHFHRLKADELWFFHDGQPLTVHCIFPDGTYQAVQLGKDLVQGQQLSFSVPAGTIFGSTVATGFALVSCVVTPGFEFEDFELFTQAELLNDYPQHSEIIQHLAYRELPLEHHHHHH | soluble
MGSDKIHHHHHHMEKVLEIRDLKVYFDLTEGTVKAVDGVSFDIRRGEILGLVGESGCGKSVTAQSILRILPKSARIVNGEIVFHRNGKTLDLTRLDPEGEEIRDIRGKDISMIFQEPMASFSPVYTVGAQMIEAILLHENVSKEEARKRVVEMLKKVKIPNAEKVVDMYPFELSGGMLQRCMIAMAMSLNPTLLLADEPTTALDVTIQAQILYLMKELQKEYHSSILLITHDMGVVAQMADRVAVMYLGNIVETAEVFELFKNPLHPYTQALLRSIPKIGIRKTRLETIKGMVPDPYNLPTGCRFHNRCEKFMKGLCDVKEPPEVEVKPGHKVKCFLYGGEKE | not soluble
MGSDKIHHHHHHMRTDNKLSGIIAKKHSFSVPLDYQQSPSEQINLFVRELSSVEHQNKELPYLVFFQGGPGFGAVRPVANTGWIKRALTQYRVLLLDQRGTGLSTPVSAESLAHLTSQQQAEYLSHFRSDNIIRDAELIRAKLSPDRPWSILGQSFGGFCVLRYLSAAPQGLKAAYITGGIPSLERSADEVYQATYQRVLAKNQDFFSRFSDARELANRLASHISEYEVLLSSGERLTVEMLQLLGINLGMEQGPEGVYYLLEQALIDTAQGVKVNPLFLHQFGQFLDYNTNPLFAVLHESIYCQNSASNWAAHRVREQYSQFNYHLGKDLLFTGEMVYPWMFDQFSQLQPLKEAAELLAAKSDWPALYDLEQLKANTVPVSAAIYSEDMFVEMQYSLETTKDVGSLKYWLTSEYEHNGIRMDGERVLDKLIALNTGRELR | not soluble
MTSEKLSAACHCGSVVFTVQLSDGFHTARRCNCSFCRMRGAVAVSAPLSGIKVLKGQDKLTEYRFNTGKAVHFFCSVCGIYTFHQRRSNPDQYGVNVACIENVSPFDFACVEVNDGVTHPSDGGSSGVVGYLRYEPKKSPPVETGGKNILEHHHHHH | soluble
MSLNPLSRNVIPIEIHRIVAVGDVHGDAERFRQILEMSGVISLRSNSSKQVVWKPRWGTKEGNFFREYGTRLRTTLIQTGDLIDRGEEDLEVLEMAVSLFNEVRTNYTDDKVVLLMGNHELLNLQGHFHYVHSKSMGGFLTRALRKRAFELDGTFGGFILENFTVAYAVADTLFVHAGIDEHVVSDGIERLNREAKQAIRTKNFGHILLGSTGPLWSRKMFLDASNGRCADTKKALASLGVKRVVVGHTPQRSGRVETFCGGSVIAIDVGMSRWMYGNIAALEITVTSYSSGDGEGHHHHHH | soluble
MNSQELLAIAVDAIDNKKGEDTISLEMKGISDMTDYFVVTHGNNERQVQAIARAVKEVANEQNIEVKRMEGYNEARWILIDLADVVVHVFHKDERNYYNIEKLYQDAPLESYSQVAYLEHHHHHH | not soluble
